The values below come from the supplement of paper PMC7877785.

This series can be described thus: self-splicing fitness, log relative to wild type (ln ratio); higher = more splicing; Tetrahymena group I intron in knt gene, E. coli kanamycin selection, DiMSum; sequences stand for … in CUCUCU…GGAGGGAAAAGUUAUCAGGCAUGCACCUGGUAGCUAGUCUUUAAACCAAUAGAUUGCAUCGGUUUAAAAGGCAAGACCGUCAAAUUGCGGGAAAGGGGUCAACAGCCGUUCAGUACCAAGUCUCAGGGGAAACUUUGAGAUGGCCUUGCAAAGGGUAUGGUAAUAAGCUGACGGACAUGGUCCUAACCACGCAGCCAAGUCCUAAGUCAACAGAUCUUCUGUUGAUAUGGAUGCAGUUCACAGACUAAAUGUCGGUCGGGGAAGAUGUAUUCUUCUCAUAAGAUAUAGUCGGACCUCUCCUUAAUGGGAGCUAGCGGAUGAAGUGAUGCAACACUGGAGCCGCUGGGAACUAAUUUGUAUGCGAAAGUAUAUUGAUUAGUUUUGGAGUACUCGUGGUCG
In outline:
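Six replicate transformations of E. coli BL21(DE3) with a pET-22b(+) library were grown overnight at 37°C or 30°C. The library randomised all eight P1ex-region intron nucleotides, the intron lying in the knt kanamycin-resistance gene, and plates were LB agar with or without 25 μg/mL kanamycin plus 100 μg/mL carbenicillin, 50 μM IPTG and 0.2% rhamnose. Pooled colonies were amplicon-sequenced on an Illumina HiSeq 2500, and fitness is the DiMSum error-weighted combination of wild-type-normalised replicate fold changes, kanamycin versus none.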

± gives the uncertainty stated by the source.

As to AAGGAGCAAUAUUACGGACC, the “self-splicing fitness (ln)” value by setting is: (30 °C) -2.55 ± 0.17; (37 °C) -2.97 ± 0.33.

Consider UCUGAGCAAUAUUACGGCUG, for which the “self-splicing fitness (ln)” value (30 °C) is -3.48 ± 0.2 and the “self-splicing fitness (ln)” value (37 °C) is -2.22 ± 0.21.

Take AUUCAGCAAUAUUACGAUUU: the “self-splicing fitness (ln)” value (30 °C) is 0.203 ± 0.088 and the “self-splicing fitness (ln)” value (37 °C) amounted to 0.898 ± 0.11.

In the case of AACUAGCAAUAUUACGGAAU, the “self-splicing fitness (ln)” value runs as follows: (30 °C) -2.42 ± 0.1; (37 °C) -1.83 ± 0.14.

For CAACAGCAAUAUUACGGUUA, the “self-splicing fitness (ln)” value (30 °C) is -0.258 ± 0.048 and the “self-splicing fitness (ln)” value (37 °C) was found to be 0.275 ± 0.056.

As to AUCAAGCAAUAUUACGGUGA, the “self-splicing fitness (ln)” value is, setting by setting: (30 °C) -1.36 ± 0.096; (37 °C) -0.818 ± 0.1.

With GGCUAGCAAUAUUACGAUGA, the “self-splicing fitness (ln)” value (30 °C) was -0.793 ± 0.15 and the “self-splicing fitness (ln)” value (37 °C) was -0.54 ± 0.16.

In the case of UCAUAGCAAUAUUACGAAGA, the “self-splicing fitness (ln)” value runs as follows: (30 °C) -2.06 ± 0.36; (37 °C) -1.56 ± 0.38.

On to GUUCAGCAAUAUUACGGAGA, for which, under “37 °C”, the “self-splicing fitness (ln)” value is -1.33 ± 0.29.

On to CCCCAGCAAUAUUACGCCCA, for which the “self-splicing fitness (ln)” value by setting is: (30 °C) -2.11 ± 0.26; (37 °C) -1.37 ± 0.25.

Consider CAAAAGCAAUAUUACGAACC, for which the “self-splicing fitness (ln)” value is -1.63 ± 0.31 (30 °C) and -1.45 ± 0.28 (37 °C).

Take AAUCAGCAAUAUUACGACGA: the “self-splicing fitness (ln)” value is, setting by setting: (30 °C) -0.461 ± 0.082; (37 °C) 0.386 ± 0.1.

Take UGCUAGCAAUAUUACGGCUG: the “self-splicing fitness (ln)” value by setting is: (30 °C) -0.317 ± 0.15; (37 °C) -0.46 ± 0.18.

Turning to GGGCAGCAAUAUUACGGGCC, the “self-splicing fitness (ln)” value runs as follows: (30 °C) -2.96 ± 0.2; (37 °C) -2.66 ± 0.31.

As for AAUUAGCAAUAUUACGCGGA, the “self-splicing fitness (ln)” value is -1.56 ± 0.16 (30 °C) and -1.3 ± 0.12 (37 °C).

With UGACAGCAAUAUUACGUAAG, the “self-splicing fitness (ln)” value is, setting by setting: (30 °C) -1.2 ± 0.064; (37 °C) -0.489 ± 0.067.

Take ACCUAGCAAUAUUACGUAGU: the “self-splicing fitness (ln)” value (30 °C) is -2.07 ± 0.09 and the “self-splicing fitness (ln)” value (37 °C) is -0.568 ± 0.081.

On to CUAGAGCAAUAUUACGGAGG, for which the “self-splicing fitness (ln)” value is -1.49 ± 0.13 (30 °C) and -1.98 ± 0.16 (37 °C).

Turning to AUCAAGCAAUAUUACGCGCU, the “self-splicing fitness (ln)” value is, setting by setting: (30 °C) -1.27 ± 0.12; (37 °C) -0.36 ± 0.11.

In the case of UAGGAGCAAUAUUACGAGUA, the “self-splicing fitness (ln)” value (30 °C) was -2.81 ± 0.24 and the “self-splicing fitness (ln)” value (37 °C) is -1.93 ± 0.22.

For GCGUAGCAAUAUUACGAACU, the “self-splicing fitness (ln)” value by setting is: (30 °C) -0.546 ± 0.13; (37 °C) -0.322 ± 0.11.

As to CUCAAGCAAUAUUACGGGAU, the “self-splicing fitness (ln)” value runs as follows: (30 °C) -3.47 ± 0.12; (37 °C) -1.34 ± 0.099.

As for AGCAAGCAAUAUUACGCUGC, the “self-splicing fitness (ln)” value was -1.58 ± 0.2 (30 °C) and -3.1 ± 0.31 (37 °C).

As to UGACAGCAAUAUUACGAAGG, the “self-splicing fitness (ln)” value (30 °C) was -3.84 ± 0.23 and the “self-splicing fitness (ln)” value (37 °C) is -1.36 ± 0.17.

As for UCAGAGCAAUAUUACGGAAU, the “self-splicing fitness (ln)” value by setting is: (30 °C) -2.94 ± 0.17; (37 °C) -2.22 ± 0.15.

For UUACAGCAAUAUUACGUCAG, the “self-splicing fitness (ln)” value (30 °C) is -0.769 ± 0.067 and the “self-splicing fitness (ln)” value (37 °C) was -0.337 ± 0.09.

Consider ACGAAGCAAUAUUACGUGUG, for which the “self-splicing fitness (ln)” value was -2.16 ± 0.054 (30 °C) and -0.817 ± 0.063 (37 °C).

Regarding CGUGAGCAAUAUUACGACCG, the “self-splicing fitness (ln)” value is -3.79 ± 0.33 (30 °C) and -1.39 ± 0.27 (37 °C).

Consider CAGAAGCAAUAUUACGAUGU, for which the “self-splicing fitness (ln)” value by setting is: (30 °C) -3.37 ± 0.23; (37 °C) -1.97 ± 0.2.

As for CAAUAGCAAUAUUACGACAU, the “self-splicing fitness (ln)” value by setting is: (30 °C) -3.694 ± 0.024; (37 °C) -2.38 ± 0.037.

As to UCGAAGCAAUAUUACGUCGG, the “self-splicing fitness (ln)” value (30 °C) is -2.65 ± 0.17 and the “self-splicing fitness (ln)” value (37 °C) is -3.7 ± 0.31.

For the sequence CCCCAGCAAUAUUACGGUCC, the “self-splicing fitness (ln)” value runs as follows: (30 °C) -3.86 ± 0.18; (37 °C) -2.9 ± 0.27.

AACCAGCAAUAUUACGGGGU: the “self-splicing fitness (ln)” value was -3.73 ± 0.14 (30 °C) and -2.88 ± 0.16 (37 °C).

As to GCGUAGCAAUAUUACGCUUC, where the note is “37 °C”, the “self-splicing fitness (ln)” value was -0.836 ± 0.35.

For GGUUAGCAAUAUUACGCUGG, the “self-splicing fitness (ln)” value (30 °C) is -3.44 ± 0.47 and the “self-splicing fitness (ln)” value (37 °C) was -1.59 ± 0.31.

As to UGCUAGCAAUAUUACGUUCA, the “self-splicing fitness (ln)” value is -0.255 ± 0.076 (30 °C) and 0.0245 ± 0.12 (37 °C).

As for UCCUAGCAAUAUUACGAUAU, the “self-splicing fitness (ln)” value reads like this: (30 °C) -3.78 ± 0.28; (37 °C) -2.72 ± 0.23.

In the case of AGUAAGCAAUAUUACGAAUU, where the note is “30 °C”, the “self-splicing fitness (ln)” value is -2.92 ± 0.42.
